For three molecules, Kd and Ki results are on record in patent US20130177981A1.

The target of assay [1] is T1, Mcl-1, Q07820.
T1 chain: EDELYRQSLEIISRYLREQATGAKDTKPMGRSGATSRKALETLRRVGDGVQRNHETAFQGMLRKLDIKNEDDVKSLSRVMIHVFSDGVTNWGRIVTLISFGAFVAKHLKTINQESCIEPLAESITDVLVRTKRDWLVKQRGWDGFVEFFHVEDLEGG
The assay can be described thus: direct-binding FP with the BODIPY-labeled analogue.

For the next assay, the target named is Bcl-xL, Q07817. The experiment in a line: direct-binding FP with the BODIPY-labeled analogue.
For assay [2], the target named is T1, Mcl-1, Q07820. The experiment in a line: competition FP; displacement of the labeled Bak BH3 peptide.

Bcl-xL, Q07817, sequence (Q07817 1-209): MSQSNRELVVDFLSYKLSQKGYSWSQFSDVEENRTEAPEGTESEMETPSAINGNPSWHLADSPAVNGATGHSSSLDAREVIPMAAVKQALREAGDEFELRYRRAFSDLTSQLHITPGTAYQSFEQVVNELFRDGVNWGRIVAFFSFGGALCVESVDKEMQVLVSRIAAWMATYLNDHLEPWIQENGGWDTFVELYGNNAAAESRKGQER

On to EEQWAREIGAQLRRMADDLNAQYERR (peptide, UniProt Q9BXH1 130-155, looked up, modifications not checked) [BODIPY-TMR-labeled analog of Puma BH3 α-peptide 1′, Q9BXH1 130-155], for which, in the assay with Mcl-1, Q07820 [1], the Kd – broadly, the concentration at which binding is half-saturated – was less than 2 nM. Take EEQWAREIGAQLRRMADDLNAQYERR (peptide, UniProt Q9BXH1 130-155, looked up, modifications not checked) [BODIPY-TMR-labeled analog of Puma BH3 α/β-peptide 4′, Q9BXH1 130-155]: the Kd stood at 2.2 nM in the assay with Bcl-xL, Q07817 and 110 nM with Mcl-1, Q07820 [1]. On to EEQWAREIGAQLRRMADDLNAQYERR (peptide, UniProt Q9BXH1 130-155, looked up, modifications not checked) [Puma BH3 α-peptide 1′, Q9BXH1 130-155], for which, in the assay with Mcl-1, Q07820 [2], the inhibition constant Ki (usually the equilibrium dissociation constant of an inhibitor or competing ligand from its target) is less than 10 nM.
